Measurements taken from article PMC2680711 (Nature structural & molecular biology, 2008).

T1: Rtt109 (recombinant, purified) (yeast, UniProt Q07794 1-436)
T1 sequence (looked up): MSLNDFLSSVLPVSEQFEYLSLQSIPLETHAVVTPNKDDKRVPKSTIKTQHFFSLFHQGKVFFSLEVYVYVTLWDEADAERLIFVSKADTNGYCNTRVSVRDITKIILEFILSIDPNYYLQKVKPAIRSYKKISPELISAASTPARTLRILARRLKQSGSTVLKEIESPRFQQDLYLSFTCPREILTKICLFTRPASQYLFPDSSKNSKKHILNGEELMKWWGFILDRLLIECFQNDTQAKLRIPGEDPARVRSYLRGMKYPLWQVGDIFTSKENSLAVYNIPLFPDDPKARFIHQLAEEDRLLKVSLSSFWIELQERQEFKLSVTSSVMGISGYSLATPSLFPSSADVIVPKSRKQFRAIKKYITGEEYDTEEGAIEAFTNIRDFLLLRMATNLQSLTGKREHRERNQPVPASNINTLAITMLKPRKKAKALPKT

B1: Alexa-546-labeled Vps75 (natural protein, S. cerevisiae)
chain: MMSDQENENEHAKAFLGLAKCEEEVDAIEREVELYRLNKMKPVYEKRDAYIDEIAEFWKIVLSQHVSFANYIRASDFKYIDTIDKIKVEWLALESEMYDTRDFSITFHFHGIEGDFKEQQVTKVFQIKKGKDDQEDGILTSEPVPIEWPQSYDSINPDLIKDKRSPEGKKKYRQGMKTIFGWFRWTGLKPGKEFPHGDSLASLFSEEIYPFCVKYYAEAQRDLEDEEGESGLSADGDSEDDDGSLGEVDLPLSDEEPSSKKRKV
modifications: Alexa-546 label, position not stated
B2: Vps75_(1−223) (Vps75 lacking the C-terminal acidic domain) (domain or fragment, S. cerevisiae, UniProt P53853 1-223, looked up)
chain: MMSDQENENEHAKAFLGLAKCEEEVDAIEREVELYRLNKMKPVYEKRDAYIDEIAEFWKIVLSQHVSFANYIRASDFKYIDTIDKIKVEWLALESEMYDTRDFSITFHFHGIEGDFKEQQVTKVFQIKKGKDDQEDGILTSEPVPIEWPQSYDSINPDLIKDKRSPEGKKKYRQGMKTIFGWFRWTGLKPGKEFPHGDSLASLFSEEIYPFCVKYYAEAQRDL

Columns and labels:
[1] = biological target: recombinant yeast (H3-H4)2 tetramer (yeast, UniProt P61830 1-136; P02309 1-103); test: other fluorescence titration
[2] = biological target: the molecule itself; test: AUC
[3] = biological target: T1, Rtt109 (recombinant, purified); test: AUC

| Binder | Kd [1] [nM] | stoichiometry N [2] | binding result [3] |
| --- | --- | --- | --- |
| B1 | 27 | – | – |
| B2 | – | 2 | binds |
